MMP-1 activity on fluorogenic peptide substrate (% MMP-1 activity) and MMP-13 activity on fluorogenic peptide substrate (% MMP-13 activity) data for two substances are collected here from patent publication US7993849B2.

Experiment [1] has as its target human MMP-1 (human) (UniProt P03956).
Experiment [2] deals with rat MMP-13 (rat) (UniProt P23097).

Chain of rat TIMP-1 (P30120 24-217 limits assumed): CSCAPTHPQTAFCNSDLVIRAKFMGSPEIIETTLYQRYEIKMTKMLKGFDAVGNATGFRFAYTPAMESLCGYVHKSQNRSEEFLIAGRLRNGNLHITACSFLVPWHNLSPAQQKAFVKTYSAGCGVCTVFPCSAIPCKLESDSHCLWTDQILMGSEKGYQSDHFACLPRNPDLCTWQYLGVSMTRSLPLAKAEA

For the substance human TIMP-1, in experiment [1], the MMP-1 activity on fluorogenic peptide substrate (% MMP-1 activity) came out at 27.
Substance rat TIMP-1 registered an MMP-13 activity on fluorogenic peptide substrate (% MMP-13 activity) in experiment [2] of 20.
